B1: IgG1-F772 (antibody)
heavy: QVQLQESGPGLVKPSETLSLTCAVSGHSISHDHAWSWVRQPPGEGLEWIGFISYSGITNYNPSLQGRVTISRDNSKNTLYLQMNSLRAEDTAVYYCARSLARTTAMDYWGEGTLVTVSSASTKGPSVFPLAPSSKSTSGGTAALGCLVKDYFPEPVTVSWNSGALTSGVHTFPAVLQSSGLYSLSSVVTVPSSSLGTQTYICNVNHKPSNTKVDKKVEPKSCDKTHTCPPCPAPELLGGPSVFLFPPKPKDTLYISRTPEVTCVVVDVSHEDPEVAFNWYVDGVEVHNAKTKPREEQYNSTYRVVSVLTVLHQDWLNGKEYKCKVSNKALPAPIEKTISKAKGQPREPQVYTLPPSRDELTKNQVSLTCLVKGFYPSDIAVEWESNGQPENNYKTTPPVLDSDGSFFLYSKLTVDKSRWQQGNVFSCSVMHEALHYHYTQKSLSLSP
light: not shown
notes: EU numbering; copies: 2 + 2
B2: IgG1-F780 (antibody)
heavy: QVQLQESGPGLVKPSETLSLTCAVSGHSISHDHAWSWVRQPPGEGLEWIGFISYSGITNYNPSLQGRVTISRDNSKNTLYLQMNSLRAEDTAVYYCARSLARTTAMDYWGEGTLVTVSSASTKGPSVFPLAPSSKSTSGGTAALGCLVKDYFPEPVTVSWNSGALTSGVHTFPAVLQSSGLYSLSSVVTVPSSSLGTQTYICNVNHKPSNTKVDKKVEPKSCDKTHTCPPCPAPELLGGPSVFLFPPKPKDTLYISRTPEVTCVVVDVSHEDPEVKFNWYVDGVEVHNAKTKPREEQYNSTYRVVSVLTVLHQDWLNGKEYKCKVSNKALPAPIEKTISKAKGQPREPQVYTLPPSRDELTKNAVSLTCLVKGFYPSDIAVEWESNGQPENNYKTTPPVLDSDGSFFLYSKLTVDKSRWQQGNVFSCSVMHEALHYHYTQKSLSLSP
light: not shown
notes: EU numbering; copies: 2 + 2
B3: IgG1-F781 (antibody)
heavy: QVQLQESGPGLVKPSETLSLTCAVSGHSISHDHAWSWVRQPPGEGLEWIGFISYSGITNYNPSLQGRVTISRDNSKNTLYLQMNSLRAEDTAVYYCARSLARTTAMDYWGEGTLVTVSSASTKGPSVFPLAPSSKSTSGGTAALGCLVKDYFPEPVTVSWNSGALTSGVHTFPAVLQSSGLYSLSSVVTVPSSSLGTQTYICNVNHKPSNTKVDKKVEPKSCDKTHTCPPCPAPELLGGPSVFLFPPKPKDTLYISRTPEVTCVVVDVSHEDPEVKFNWYVDGVEVHNAKTKPREEQYNSTYRVVSVLTVLHQDWLNGKEYKCKVSNKALPAPIEKTISKAKGQPREPQVYTLPPSRDELTKNQVSLTCLVKGFYPADIAVEWESNGQPENNYKTTPPVLDSDGSFFLYSKLTVDKSRWQQGNVFSCSVMHEALHYHYTQKSLSLSP
light: not shown
notes: EU numbering; copies: 2 + 2
B4: IgG1-F773 (antibody)
heavy: QVQLQESGPGLVKPSETLSLTCAVSGHSISHDHAWSWVRQPPGEGLEWIGFISYSGITNYNPSLQGRVTISRDNSKNTLYLQMNSLRAEDTAVYYCARSLARTTAMDYWGEGTLVTVSSASTKGPSVFPLAPSSKSTSGGTAALGCLVKDYFPEPVTVSWNSGALTSGVHTFPAVLQSSGLYSLSSVVTVPSSSLGTQTYICNVNHKPSNTKVDKKVEPKSCDKTHTCPPCPAPELLGGPSVFLFPPKPKDTLYISRTPEVTCVVVDVSHEDPEVKFNWYVDGAEVHNAKTKPREEQYNSTYRVVSVLTVLHQDWLNGKEYKCKVSNKALPAPIEKTISKAKGQPREPQVYTLPPSRDELTKNQVSLTCLVKGFYPSDIAVEWESNGQPENNYKTTPPVLDSDGSFFLYSKLTVDKSRWQQGNVFSCSVMHEALHYHYTQKSLSLSP
light: not shown
notes: EU numbering; copies: 2 + 2
B5: IgG1-F782 (antibody)
heavy: QVQLQESGPGLVKPSETLSLTCAVSGHSISHDHAWSWVRQPPGEGLEWIGFISYSGITNYNPSLQGRVTISRDNSKNTLYLQMNSLRAEDTAVYYCARSLARTTAMDYWGEGTLVTVSSASTKGPSVFPLAPSSKSTSGGTAALGCLVKDYFPEPVTVSWNSGALTSGVHTFPAVLQSSGLYSLSSVVTVPSSSLGTQTYICNVNHKPSNTKVDKKVEPKSCDKTHTCPPCPAPELLGGPSVFLFPPKPKDTLYISRTPEVTCVVVDVSHEDPEVKFNWYVDGVEVHNAKTKPREEQYNSTYRVVSVLTVLHQDWLNGKEYKCKVSNKALPAPIEKTISKAKGQPREPQVYTLPPSRDELTKNQVSLTCLVKGFYPSDIAVEWESNGQPENNAKTTPPVLDSDGSFFLYSKLTVDKSRWQQGNVFSCSVMHEALHYHYTQKSLSLSP
light: not shown
notes: EU numbering; copies: 2 + 2
B6: IgG1-F777 (antibody)
heavy: QVQLQESGPGLVKPSETLSLTCAVSGHSISHDHAWSWVRQPPGEGLEWIGFISYSGITNYNPSLQGRVTISRDNSKNTLYLQMNSLRAEDTAVYYCARSLARTTAMDYWGEGTLVTVSSASTKGPSVFPLAPSSKSTSGGTAALGCLVKDYFPEPVTVSWNSGALTSGVHTFPAVLQSSGLYSLSSVVTVPSSSLGTQTYICNVNHKPSNTKVDKKVEPKSCDKTHTCPPCPAPELLGGPSVFLFPPKPKDTLYISRTPEVTCVVVDVSHEDPEVKFNWYVDGVEVHNAKTKPREEQYNSTYRVVSVLTVLHQDWLNGKEYKCKVSNKALPAPIEKTISKAKGQPRAPQVYTLPPSRDELTKNQVSLTCLVKGFYPSDIAVEWESNGQPENNYKTTPPVLDSDGSFFLYSKLTVDKSRWQQGNVFSCSVMHEALHYHYTQKSLSLSP
light: not shown
notes: EU numbering
B7: IgG1-F774 (antibody)
heavy: QVQLQESGPGLVKPSETLSLTCAVSGHSISHDHAWSWVRQPPGEGLEWIGFISYSGITNYNPSLQGRVTISRDNSKNTLYLQMNSLRAEDTAVYYCARSLARTTAMDYWGEGTLVTVSSASTKGPSVFPLAPSSKSTSGGTAALGCLVKDYFPEPVTVSWNSGALTSGVHTFPAVLQSSGLYSLSSVVTVPSSSLGTQTYICNVNHKPSNTKVDKKVEPKSCDKTHTCPPCPAPELLGGPSVFLFPPKPKDTLYISRTPEVTCVVVDVSHEDPEVKFNWYVDGVEVHAAKTKPREEQYNSTYRVVSVLTVLHQDWLNGKEYKCKVSNKALPAPIEKTISKAKGQPREPQVYTLPPSRDELTKNQVSLTCLVKGFYPSDIAVEWESNGQPENNYKTTPPVLDSDGSFFLYSKLTVDKSRWQQGNVFSCSVMHEALHYHYTQKSLSLSP
light: not shown
notes: EU numbering; copies: 2 + 2
B8: IgG1-F783 (antibody)
heavy: QVQLQESGPGLVKPSETLSLTCAVSGHSISHDHAWSWVRQPPGEGLEWIGFISYSGITNYNPSLQGRVTISRDNSKNTLYLQMNSLRAEDTAVYYCARSLARTTAMDYWGEGTLVTVSSASTKGPSVFPLAPSSKSTSGGTAALGCLVKDYFPEPVTVSWNSGALTSGVHTFPAVLQSSGLYSLSSVVTVPSSSLGTQTYICNVNHKPSNTKVDKKVEPKSCDKTHTCPPCPAPELLGGPSVFLFPPKPKDTLYISRTPEVTCVVVDVSHEDPEVKFNWYVDGVEVHNAKTKPREEQYNSTYRVVSVLTVLHQDWLNGKEYKCKVSNKALPAPIEKTISKAKGQPREPQVYTLPPSRDELTKNQVSLTCLVKGFYPSDIAVEWESNGQPENNYKTTPPVLDSDGSFFLYSKLTVAKSRWQQGNVFSCSVMHEALHYHYTQKSLSLSP
light: not shown
notes: EU numbering; copies: 2 + 2
B9: IgG1-F784 (antibody)
heavy: QVQLQESGPGLVKPSETLSLTCAVSGHSISHDHAWSWVRQPPGEGLEWIGFISYSGITNYNPSLQGRVTISRDNSKNTLYLQMNSLRAEDTAVYYCARSLARTTAMDYWGEGTLVTVSSASTKGPSVFPLAPSSKSTSGGTAALGCLVKDYFPEPVTVSWNSGALTSGVHTFPAVLQSSGLYSLSSVVTVPSSSLGTQTYICNVNHKPSNTKVDKKVEPKSCDKTHTCPPCPAPELLGGPSVFLFPPKPKDTLYISRTPEVTCVVVDVSHEDPEVKFNWYVDGVEVHNAKTKPREEQYNSTYRVVSVLTVAHQDWLNGKEYKCKVSNKALPAPIEKTISKAKGQPREPQVYTLPPSRDELTKNQVSLTCLVKGFYPSDIAVEWESNGQPENNYKTTPPVLDSDGSFFLYSKLTVDKSRWQQGNVFSCSVMHEALHYHYTQKSLSLSP
light: not shown
notes: EU numbering; copies: 2 + 2
B10: IgG1-F776 (antibody)
heavy: QVQLQESGPGLVKPSETLSLTCAVSGHSISHDHAWSWVRQPPGEGLEWIGFISYSGITNYNPSLQGRVTISRDNSKNTLYLQMNSLRAEDTAVYYCARSLARTTAMDYWGEGTLVTVSSASTKGPSVFPLAPSSKSTSGGTAALGCLVKDYFPEPVTVSWNSGALTSGVHTFPAVLQSSGLYSLSSVVTVPSSSLGTQTYICNVNHKPSNTKVDKKVEPKSCDKTHTCPPCPAPELLGGPSVFLFPPKPKDTLYISRTPEVTCVVVDVSHEDPEVKFNWYVDGVEVHNAKTKPREEQYNSTYRVVSVLTVLHQDWLNGKEYKCKVSNKALPAPIEKTISKAAGQPREPQVYTLPPSRDELTKNQVSLTCLVKGFYPSDIAVEWESNGQPENNYKTTPPVLDSDGSFFLYSKLTVDKSRWQQGNVFSCSVMHEALHYHYTQKSLSLSP
light: not shown
notes: EU numbering; copies: 2 + 2
B11: IgG1-F775 (antibody)
heavy: QVQLQESGPGLVKPSETLSLTCAVSGHSISHDHAWSWVRQPPGEGLEWIGFISYSGITNYNPSLQGRVTISRDNSKNTLYLQMNSLRAEDTAVYYCARSLARTTAMDYWGEGTLVTVSSASTKGPSVFPLAPSSKSTSGGTAALGCLVKDYFPEPVTVSWNSGALTSGVHTFPAVLQSSGLYSLSSVVTVPSSSLGTQTYICNVNHKPSNTKVDKKVEPKSCDKTHTCPPCPAPELLGGPSVFLFPPKPKDTLYISRTPEVTCVVVDVSHEDPEVKFNWYVDGVEVHNAKTKPREEQYNSTYRVVSVLTVLHQDWLNGKEYKCKVSNKALPAPIEKTISAAKGQPREPQVYTLPPSRDELTKNQVSLTCLVKGFYPSDIAVEWESNGQPENNYKTTPPVLDSDGSFFLYSKLTVDKSRWQQGNVFSCSVMHEALHYHYTQKSLSLSP
light: not shown
notes: EU numbering; copies: 2 + 2
B12: IgG1-F779 (antibody)
heavy: QVQLQESGPGLVKPSETLSLTCAVSGHSISHDHAWSWVRQPPGEGLEWIGFISYSGITNYNPSLQGRVTISRDNSKNTLYLQMNSLRAEDTAVYYCARSLARTTAMDYWGEGTLVTVSSASTKGPSVFPLAPSSKSTSGGTAALGCLVKDYFPEPVTVSWNSGALTSGVHTFPAVLQSSGLYSLSSVVTVPSSSLGTQTYICNVNHKPSNTKVDKKVEPKSCDKTHTCPPCPAPELLGGPSVFLFPPKPKDTLYISRTPEVTCVVVDVSHEDPEVKFNWYVDGVEVHNAKTKPREEQYNSTYRVVSVLTVLHQDWLNGKEYKCKVSNKALPAPIEKTISKAKGQPREPQVYTLPPSRDELTKAQVSLTCLVKGFYPSDIAVEWESNGQPENNYKTTPPVLDSDGSFFLYSKLTVDKSRWQQGNVFSCSVMHEALHYHYTQKSLSLSP
light: not shown
notes: EU numbering; copies: 2 + 2

The target of the experiment is T1, soluble human FcRn complexed with β2-microglobulin (human, UniProt P61769 21-119, limits assumed).
T1 construct: also called hFcRn
T1 sequence (chain, as listed by the source limits assumed, chain 1 of 2): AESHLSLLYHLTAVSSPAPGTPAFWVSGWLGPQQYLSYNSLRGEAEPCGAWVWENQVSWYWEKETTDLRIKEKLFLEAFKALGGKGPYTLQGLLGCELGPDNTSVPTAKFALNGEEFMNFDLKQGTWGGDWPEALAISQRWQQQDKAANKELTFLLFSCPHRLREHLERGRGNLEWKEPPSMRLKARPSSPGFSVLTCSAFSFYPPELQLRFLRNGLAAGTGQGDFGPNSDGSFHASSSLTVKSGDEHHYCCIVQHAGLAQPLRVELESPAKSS
T1 sequence (P61769 21-119 limits assumed, chain 2 of 2): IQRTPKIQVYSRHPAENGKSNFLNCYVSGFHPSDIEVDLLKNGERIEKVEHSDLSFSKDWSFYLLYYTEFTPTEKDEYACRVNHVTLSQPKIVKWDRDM
Nature of the experiment: Biacore SPR, pH 7.0.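 Also: test antibodies captured on a Protein L chip with human FcRn flowed over as analyte, KD obtained as the ratio of dissociation to association rate constants.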
Turning to B1, the Kd (in general, a measure of binding affinity in units of concentration) was 380 nM. In the case of B2 it was 390 nM. In turn, B3 showed a dissociation constant Kd of 370 nM. B4 had a Kd of 390 nM.

B5 returned a dissociation constant Kd of 350 nM. B6 showed a dissociation constant Kd of 390 nM. For the molecule B7, the affinity, expressed as Kd, was 400 nM. B8 came in with a Kd of 400 nM. In turn, B9 displayed a Kd of 500 nM. The molecule B10 showed a Kd of 390 nM.

In the case of B11, the dissociation constant Kd came to 620 nM. The molecule B12 came in with a Kd of 390 nM.

The record behind these values is US20200199241A1 (Chugai, published 2020).
